Results reported in the nanobody polyreactivity screen of Harvey et al. (2022).

Assay: yeast display, Sf9 membrane polyspecificity reagent, FACS + sequencing; frameworks hold sequencing errors
In short: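 Synthetic nanobody libraries on Saccharomyces cerevisiae BJ5465 were galactose-induced for 36–48 hours, stained 1 hour at 4 °C with 10% biotinylated, detergent-solubilized Sf9 membrane reagent and enriched on streptavidin microbeads. FACS then separated cells into low and high (top ~1%) gates by anti-HA (expression) and streptavidin (reagent binding) fluorescence. Genes were colony-PCR amplified, MiSeq 2 × 250 sequenced and CDR-length filtered. A clone's polyreactivity label is that of its gate of origin.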

**Q.** With “QVQLVESGGGLDQAGGSLRLISAASGYVMGWYRQAPEKEKELVATITRGTSTYYADSVKGRFTISRDNAKNTVYFQMNSLKPDDTAVYYCAARTTSGEWPPGNICTYLYDYWGQGTQVTVSS” as the sequence, how does the “polyreactivity (PSR sort gate)” value read?
**A.** low polyreactivity

**Q.** With “QVQLVESGGGLVQAGGSLRLSCAASGITFDGNAMGWYRQAPGKERELVAGISGSGGGTYYADSVKGRFTISRDNAKNTVYLQMNSLKPEDTAVYYCAADTSTSHAYDYWGQGTQVTVSS” as the sequence, how does the “polyreactivity (PSR sort gate)” value read?
**A.** low polyreactivity

**Q.** Which “polyreactivity (PSR sort gate)” value does the source give for “QVQLVESAGGLVQAGGSLRLSCGASGRIFGWYALGWSRQAPGKERQLVAAITRSGGSTFYADSVKGRFTISRDNAKNTVYLQMHSLKPDDTAVYYCNARYFNGRHKHYYWGQGTQVTVSS” here?
**A.** high polyreactivity

**Q.** For “QVQLVESGGGLVQAGGSLRLSCAASGRTFRSNTKGGYRQAPGKERELVAAISWSGTRTYYADSVKGRFTISRDNAKNSVYLQMNSLKPEDTAVYYCNAVGFDQPRYYYWGQGTQVTVSS”, which “polyreactivity (PSR sort gate)” value is on record?
**A.** high polyreactivity

**Q.** For “QVQLVESVGGLVQAGGSLRLSCAASGFTFGPYAMGWYRQSPGKERELVAPIDDSGGNTYYADSVKGRFTISRDNAKNTVYLQMNSLKQEDTAVYYCNAFGADYYHVYPAEDYWGQGNQVTVSS”, which “polyreactivity (PSR sort gate)” value is on record?
**A.** low polyreactivity

**Q.** With “QVQLVESGGGLVQAGGSLRLSCAASGRTFPTNAMGWYRQAPGKERELVARITWSGGSTYADSVKGRFTISRDNAKNTVYFQMNSLKPEDTAVYYCAARGYKPQFPWRRYDYWGQGTQVTVSS” as the sequence, how does the “polyreactivity (PSR sort gate)” value read?
**A.** high polyreactivity

**Q.** With “QVQLVESGGGLVQAGGSLRLSCAASGSTFNWYAMGWYRQAPGKERELVASIRISGGSTYYADSVKGRFTISRDNAKNTVYLQMNSLKPEDTAVYYCNAKLFIRWFTYDYLGQGTQVTVSS” as the sequence, how does the “polyreactivity (PSR sort gate)” value read?
**A.** low polyreactivity

**Q.** For “QVHLVDSGGGLVQAGGSLRLSCAASGRIYYVYAMGGYRQAPGQERELVAGITSTGGSTYYADSVKGRFTISRDNAKSTVYLQINRLNPVDTAVYYGATDYGYYDYWGQGTQVTVSS”, which “polyreactivity (PSR sort gate)” value is on record?
**A.** low polyreactivity

**Q.** For “QVQLVESGGGLVQAGGSLRLSCAASGSTFYAYTMGWYRQAPGKEREFVAAISKSGGSTYYADSVKGRFTISRDNAKNTVYIQMNSLKPEDTAVYYCAARVYYRYDWGQGTQVTVSS”, which “polyreactivity (PSR sort gate)” value is on record?
**A.** high polyreactivity

**Q.** With “QVQLVESGGGLVQAGGSLRLSCAASGFIFVKYVMGWYRQAPGKERELVATITNGVSTNYADSVKGRFTISRDNAKNTVYLQMNSLKPEDTAVYYCNTGSNAWYFSGDYWGQGTQVTVSS” as the sequence, how does the “polyreactivity (PSR sort gate)” value read?
**A.** low polyreactivity

**Q.** For “QVQLVESGGGLVQAGGSLRLSCAASGLIFYYYAMGWYRQAPGKEREFVAAISRRGGSTYYADSVKGRFTISRDNAKNTVYLHMNSLKPEDTAVYYCAAKSGSFVHGGYQTPVYGSDYWGQGTQVTVSS”, which “polyreactivity (PSR sort gate)” value is on record?
**A.** high polyreactivity

**Q.** Which “polyreactivity (PSR sort gate)” value does the source give for “QVQLVESGGGLVQAGGSLSLSCAASGRTFFKYAMGWYRQAPGKERELVASITGRGGSTYADSVKGRFTISRDNAKNTVYLQMNSLKPEDTAVYYCAKVYQRGAQYYYYKYDYWGQGTQVTVSS” here?
**A.** high polyreactivity

**Q.** With “QVQLVESGGGLVQAGGSLRLSCAASGNIFYINAMGWYRQAPGKERELVAAISSGGRTNYADSVKGRFTISRDNAKNTVYLQMNSLKPEDTAVYYCGAEGPEIKYYYWGQGTQVTVSL” as the sequence, how does the “polyreactivity (PSR sort gate)” value read?
**A.** low polyreactivity

**Q.** Which “polyreactivity (PSR sort gate)” value does the source give for “QVQLQESGGGLVQADGSLRLSCAASGSIFGYYYMGWYRQAPGKDRDLVATINICGITNYADSVNGRFTISRDNAKYTVYLQMNSLKPDDTAVYYCAADEFDQRDLGYWGQGTQVSVSS” here?
**A.** low polyreactivity

**Q.** With “QVNLVESGVGLVQAGVSLRLSCAASGRIFQYYAMGWYRQATGKERELVAAISRSGGSTYYADSVKGRFTISRDNANNTVYLQMNSLKPEDTAVYYCAKVYRGFSYGYCGQGTQVTVSS” as the sequence, how does the “polyreactivity (PSR sort gate)” value read?
**A.** high polyreactivity

**Q.** Which “polyreactivity (PSR sort gate)” value does the source give for “QVQVVESGGGLVQAGGSLRLSCAASGSIFFFYAMGWYRQAPGQERELVAAITGSGGSTYYADSVKGRFTISRDKAKNTVYLQMNSLKPEDPAVYYCAVRTSRQVYSYGGYESWGHGTQVTVSS” here?
**A.** low polyreactivity

**Q.** With “QVQLVESGGVLVQAGGRLRISCAASGSTFVRNAMGWYRQAPGKEMELVAAISFSGGSTYYADSVKGRFTISRDTAKNTVYLQMNSLKPEDTAVYYCAKKTRYRSRGMNYWGQATQVTVSS” as the sequence, how does the “polyreactivity (PSR sort gate)” value read?
**A.** high polyreactivity

**Q.** Which “polyreactivity (PSR sort gate)” value does the source give for “QVQLVESGGGLVQAGGSLRLSCAASGITFRYYAMGWYRQAPGKERELVATITRGGSTYYADSVKGRFTISRDNAKNTVYLQMNSLKPEDTADYYCAAAGQRYTYWVDYWGQGTQVTVSS” here?
**A.** high polyreactivity

**Q.** With “QVQLVESGGGLVQAGGSLRLSCASSGFTFFRNAMGWYRQAPGKERELVAAISGSGGRTYYADSVKGRFTISRDNAKNTVYLQMNSLKLEDTAVYYCAAVPVDPGYDYWGQVTQVTVSS” as the sequence, how does the “polyreactivity (PSR sort gate)” value read?
**A.** high polyreactivity

**Q.** With “QVQLVESGGGLVHAGGSLRLSCAASGSTFNTNTMGWYRQAPGKERELVAAITKSGGSTYYADSVKGRFTISRDNAKNTVYLQMNSLKPEDTAVYYCNAYPDDSYKYLYWSDGDYWGQGTQVTVSS” as the sequence, how does the “polyreactivity (PSR sort gate)” value read?
**A.** low polyreactivity

**Q.** Which “polyreactivity (PSR sort gate)” value does the source give for “QVQLVESGGGLVQAGGSLRLSCAASGRIFFFYAMGWYRQAPGKERELVATITWTDGSTDYADSVKGRFTISRDNAKNTVYLQMNSLKPEDTAVYYCAKDEYVSRYDYWGQGTQVTVSS” here?
**A.** low polyreactivity

**Q.** Which “polyreactivity (PSR sort gate)” value does the source give for “QVQLVESGGGLVQAGGSLRLSCAASGSTFTRYVMGWYRQAPGKERELVAAISKRGGSTYYADSVKGRFTISRDNAKHTVYLQMNSLKPVDPAVYYCNRVSRAPFDYWGQGTQVTVSS” here?
**A.** high polyreactivity

**Q.** With “QVQLVESGGGLVQAGGSLRLSCAASGRIFWSNAMGWYRQAPGKERELVAAISYSGGSTYYADSVKGRFTISRDNAKNTVYLQMNSLKPEDTAVYYCAALFRPRVHRFDYWGQGTQVTVSS” as the sequence, how does the “polyreactivity (PSR sort gate)” value read?
**A.** low polyreactivity

**Q.** Which “polyreactivity (PSR sort gate)” value does the source give for “QVQLVESGGGLVQAGGSLRLSCAASGSTFFYYAMGWYRQAPGKERELVAAITSSGGRTYYADSVKGRFTISRDNAKNTVYLQMNSLKPEDTAVYYCAARDYRQSRYEYWGQGTQVTVSS” here?
**A.** high polyreactivity

**Q.** With “QVQLVESGGGLVQAGGSLRLSCAAYGIIFTWYVMGWYRQAPGKERELVAAISASGASTYYADSVKGRFTISRDNAKNTVYLQMNSLKPEDTAVYYCAARYGWYPVRQPRPGGDYWGQGTQVTVSS” as the sequence, how does the “polyreactivity (PSR sort gate)” value read?
**A.** high polyreactivity

**Q.** With “QVQLVESGVGLVQAGGSLRLSCAASGLIFYKYAMGWYRQAPGKERELVAAITRGGGSTSYADSVKGRFTISRDNAKNTVYLQMNSLKPEDTAVYYCNAAPYTRALQGEFDYWGQGTQVTVSS” as the sequence, how does the “polyreactivity (PSR sort gate)” value read?
**A.** high polyreactivity

**Q.** For “QVQLVESGGGLVQAGGSLRLSCAASGRILDWYAMGWYRQAPGTERELVASIYSTGGSSYYADSVKGRFTISRDHAKNTVYLQMNRLKPDDTAVYYCAAVIRSQDGRGYDYWGHGTQVTVSS”, which “polyreactivity (PSR sort gate)” value is on record?
**A.** high polyreactivity

**Q.** With “QVQLEESGGALFQAGGSIRLSCAASGYTFDAYAMGWYRQAPGKERELVADINYSVGSTTYADSVKGRFTISRDNAKNTVYLQMNSLKTEDTAVYYCAAQGTWYAWDYDYWGQGTQVTVSS” as the sequence, how does the “polyreactivity (PSR sort gate)” value read?
**A.** low polyreactivity

**Q.** For “QVQLVESGGGLVQAGGSLRLSCAASGSIFRWYAMGWYRQAPGKERELVASITRSGGRTYYADSVKGRFTISRDNAKNTVYLQMNSLKPEDTAVYYCAADYYAYWYRYRYYYWGQGTQVTVSS”, which “polyreactivity (PSR sort gate)” value is on record?
**A.** high polyreactivity

**Q.** Which “polyreactivity (PSR sort gate)” value does the source give for “QVQLVESGGGLFQAGGSLRLSCAASGSTFAPYAMGWYRHATGKERELVAAISNSGGSTYYADSVKGRFTISRDDAKNTVYLQMNCLKPEATAVLYCATLKYPYATSQGYDFWGQCTQVTVSS” here?
**A.** high polyreactivity

**Q.** For “QVQLVESGGGLVQAGGSLRLSCAASGRTFYPNTMGWYRQAPGKERELVAAIRSSGGSTYYADSVKGRFTISRDNAKKTVYLQMNSLKPEDTAVYYCAAKGRSSYFYWFDYWGQGTQVTVSS”, which “polyreactivity (PSR sort gate)” value is on record?
**A.** high polyreactivity

**Q.** Which “polyreactivity (PSR sort gate)” value does the source give for “QVQLVESGGGLVQAGGSLRLSCAASGSTFQIYTMGWYRQAPGKERELVAAITNGGGSTYYADSVKGRFTISRDNAKNTVYLQMNSLKPEDTAVYYCAAEQRYPLIILYDYWGQGTQVTVSS” here?
**A.** low polyreactivity

**Q.** With “QVQLVESGGGLVQAGGSLRLSCAASGNTFHPYAMGWYRQAPGKVRELVAAITKSGGSTYYADSVKGRFTISRDNAKNTVYLQMNSLKPEDTAVYYCATDGYEYTDYGSSGYDYWGQGTQVTVSS” as the sequence, how does the “polyreactivity (PSR sort gate)” value read?
**A.** low polyreactivity

**Q.** With “QVQLVESGGGLVQAGGSLRLSCAASGRTVSSNAMGWYRQAPGKERELVASISFRGGRTYYADSVKGRFTISRDNAKNPVYLQMNSLKPEDTADYYCVSGTKRTGYGYWGQGTQVTVSS” as the sequence, how does the “polyreactivity (PSR sort gate)” value read?
**A.** high polyreactivity

**Q.** Which “polyreactivity (PSR sort gate)” value does the source give for “QVQLVESGGGLVQAGGSLRLSCAASGSTYDNNRMGWYRQATGKERELVASITFNVGSTYYADSVKGRFTISRDNAKNTVYLQMNSLKPEETAVYYCAADDLNLSQALGYDYWGQGTQVTVSS” here?
**A.** low polyreactivity

**Q.** With “QVQLVESGGGLVQAGGSLRLSCAASGFTFRDNAMGRYRQAPGKERELVAAITWDGGSTYYADSVKGRFTISRDNEKNTVYLQMNSLKPEDTAVYYCAASRYYPRYFKRYYYWGQGTQVTVSS” as the sequence, how does the “polyreactivity (PSR sort gate)” value read?
**A.** high polyreactivity

**Q.** Which “polyreactivity (PSR sort gate)” value does the source give for “QVQLVESGGGLVQAGGSLRLSCAASGSTLYCNAMGWYRQAPGKERELVAAISRSGGSTYYADSVKGRFTISRDNAKKTVYLQMNSLKPEDTAVYYCAARRYVPHTEYYYWGQGTQGTVSS” here?
**A.** low polyreactivity

**Q.** For “QVQLVESGVGLVQAGGSLRLSCAASGSTFANNAMGWYRQAPGKERELVAAISWSGGSTYYADSVKGRFTISRDNAKNTVYLQMNSLKPEDTAVYYCAADSPRYGGYGYWGQGTQVTLSS”, which “polyreactivity (PSR sort gate)” value is on record?
**A.** low polyreactivity

**Q.** With “QVPLVESGGGLVQAGGSLRLSCAASGRTFVGYAMGWSSQAPGKDRELVARITGRSGSTYYADSVKGRFTISRDNAKNTVYLQMNSLKTEDTAVYDCAKRITYYYPGYDDWGQGTQVTVAS” as the sequence, how does the “polyreactivity (PSR sort gate)” value read?
**A.** low polyreactivity

**Q.** Which “polyreactivity (PSR sort gate)” value does the source give for “QVQLVESGGGLVQAGGSLRLSCAASGRTIDSYAMGRNRQAPGKERELVAAISWGGGSTYYADSVKGRFTISRDNAKNTVYLQMNSLKPEDTAVYYCAARWNYTEFDYWGQGTQVTVSS” here?
**A.** low polyreactivity

**Q.** Which “polyreactivity (PSR sort gate)” value does the source give for “QVQLVESGGGLVQAGGSLRLTCAASGSISFGYAMGWYRQAPGKERELVAAITWSTARTYYADSVKGRFTISRDNAKNTVYLQMNSLKPEDTAVYYCAKGGYWGQGTQVTVSS” here?
**A.** high polyreactivity
